Results: patent publication US20250152746A1, “BASE EDITING OF ANGPTL3 AND METHODS OF USING SAME FOR TREATMENT OF DISEASE” (Verve Therapeutics, Inc., priority 2020, published 2025)
In the oligonucleotide strings, read from the 5' end, every base follows the letter of its sugar. An asterisk marks phosphorothioate; unmarked linkages are phosphodiester. Other units and linkages are bracketed, terminal groups are in braces. A string of capitals states the bases alone. m = 2'-O-methyl; r = 2'-OH (RNA)

B1: GA240: PCSK9 gRNA; protospacer TGCCAGCGCCTGGCGAGGGC (SEQ ID NO: 233) (nucleic acid)
guide: UGCCAGCGCCUGGCGAGGGCGUUUUAGAGCUAGAAAUAGCAAGUUAAAAUAAGGCUAGUCCGUUAUCAACUUGAAAAAGUGGCACCGAGUCGGUGCUUUU
modifications: sugars from the 5' end m3 r94 m3, linkages s3 o93 s3 (s phosphorothioate, o phosphodiester), T or U not given here
B2: GA246: PCSK9 gRNA; protospacer GCCAGCGCCTGGCGAGGGCT (SEQ ID NO: 239) (nucleic acid)
guide: GCCAGCGCCUGGCGAGGGCUGUUUUAGAGCUAGAAAUAGCAAGUUAAAAUAAGGCUAGUCCGUUAUCAACUUGAAAAAGUGGCACCGAGUCGGUGCUUUU
modifications: sugars from the 5' end m3 r94 m3, linkages s3 o93 s3 (s phosphorothioate, o phosphodiester), T or U not given here
B3: GA234: PCSK9 gRNA; protospacer CGCCTGCCAGCGCCTGGCGA (SEQ ID NO: 252) (nucleic acid)
guide: mC*mG*mC*rCrUrGrCrCrArGrCrGrCrCrUrGrGrCrGrArGrUrUrUrUrArGrArGrCrUrArGrArArArUrArGrCrArArGrUrUrArArArArUrArArGrGrCrUrArGrUrCrCrGrUrUrArUrCrArArCrUrUrGrArArArArArGrUrGrGrCrArCrCrGrArGrUrCrGrGrUrGrCrU*mU*mU*mU
B4: GA236: PCSK9 gRNA; protospacer AGCCCTCGCCAGGCGCTGGC (SEQ ID NO: 229) (nucleic acid)
guide: AGCCCUCGCCAGGCGCUGGCGUUUUAGAGCUAGAAAUAGCAAGUUAAAAUAAGGCUAGUCCGUUAUCAACUUGAAAAAGUGGCACCGAGUCGGUGCUUUU
modifications: sugars from the 5' end m3 r94 m3, linkages s3 o93 s3 (s phosphorothioate, o phosphodiester), T or U not given here
B5: GA162: PCSK9 gRNA; protospacer GGACGGCGACTACGAGGAGC (SEQ ID NO: 156) (nucleic acid)
guide: mG*mG*mA*rCrGrGrCrGrArCrUrArCrGrArGrGrArGrCrGrUrUrUrUrArGrArGrCrUrArGrArArArUrArGrCrArArGrUrUrArArArArUrArArGrGrCrUrArGrUrCrCrGrUrUrArUrCrArArCrUrUrGrArArArArArGrUrGrGrCrArCrCrGrArGrUrCrGrGrUrGrCrU*mU*mU*mU
B6: GA237: PCSK9 gRNA; protospacer CAACGCCGCCTGCCAGCGCC (SEQ ID NO: 230) (nucleic acid)
guide: CAACGCCGCCUGCCAGCGCCGUUUUAGAGCUAGAAAUAGCAAGUUAAAAUAAGGCUAGUCCGUUAUCAACUUGAAAAAGUGGCACCGAGUCGGUGCUUUU
modifications: sugars from the 5' end m3 r94 m3, linkages s3 o93 s3 (s phosphorothioate, o phosphodiester), T or U not given here
B7: GA233: PCSK9 gRNA; protospacer GCGGCTGTACCCACCCGCCA (SEQ ID NO: 227) (nucleic acid)
guide: GCGGCUGUACCCACCCGCCAGUUUUAGAGCUAGAAAUAGCAAGUUAAAAUAAGGCUAGUCCGUUAUCAACUUGAAAAAGUGGCACCGAGUCGGUGCUUUU
modifications: sugars from the 5' end m3 r94 m3, linkages s3 o93 s3 (s phosphorothioate, o phosphodiester), T or U not given here
B8: GA228: PCSK9 gRNA; protospacer CGGCTGTACCCACCCGCCAG (SEQ ID NO: 222) (nucleic acid)
guide: CGGCUGUACCCACCCGCCAGGUUUUAGAGCUAGAAAUAGCAAGUUAAAAUAAGGCUAGUCCGUUAUCAACUUGAAAAAGUGGCACCGAGUCGGUGCUUUU
modifications: sugars from the 5' end m3 r94 m3, linkages s3 o93 s3 (s phosphorothioate, o phosphodiester), T or U not given here
B9: GA239: PCSK9 gRNA; protospacer CCGCCTGCCAGCGCCTGGCG (SEQ ID NO: 232) (nucleic acid)
guide: CCGCCUGCCAGCGCCUGGCGGUUUUAGAGCUAGAAAUAGCAAGUUAAAAUAAGGCUAGUCCGUUAUCAACUUGAAAAAGUGGCACCGAGUCGGUGCUUUU
modifications: sugars from the 5' end m3 r94 m3, linkages s3 o93 s3 (s phosphorothioate, o phosphodiester), T or U not given here
B10: GA229: PCSK9 gRNA; protospacer GTCGTGCTGGTCACCGCTGC (SEQ ID NO: 223) (nucleic acid)
guide: GUCGUGCUGGUCACCGCUGCGUUUUAGAGCUAGAAAUAGCAAGUUAAAAUAAGGCUAGUCCGUUAUCAACUUGAAAAAGUGGCACCGAGUCGGUGCUUUU
modifications: sugars from the 5' end m3 r94 m3, linkages s3 o93 s3 (s phosphorothioate, o phosphodiester), T or U not given here
B11: GA241: PCSK9 gRNA; protospacer TGCTGCTGCCCCTGGCGGGT (SEQ ID NO: 234) (nucleic acid)
guide: UGCUGCUGCCCCUGGCGGGUGUUUUAGAGCUAGAAAUAGCAAGUUAAAAUAAGGCUAGUCCGUUAUCAACUUGAAAAAGUGGCACCGAGUCGGUGCUUUU
modifications: sugars from the 5' end m3 r94 m3, linkages s3 o93 s3 (s phosphorothioate, o phosphodiester), T or U not given here
B12: GA245: PCSK9 gRNA; protospacer GTGCTGCTGCCCCTGGCGGG (SEQ ID NO: 238) (nucleic acid)
guide: GUGCUGCUGCCCCUGGCGGGGUUUUAGAGCUAGAAAUAGCAAGUUAAAAUAAGGCUAGUCCGUUAUCAACUUGAAAAAGUGGCACCGAGUCGGUGCUUUU
modifications: sugars from the 5' end m3 r94 m3, linkages s3 o93 s3 (s phosphorothioate, o phosphodiester), T or U not given here
B13: GA161: PCSK9 gRNA; protospacer GGACGAGGACGGCGACTACG (SEQ ID NO: 155) (nucleic acid)
guide: mG*mG*mA*rCrGrArGrGrArCrGrGrCrGrArCrUrArCrGrGrUrUrUrUrArGrArGrCrUrArGrArArArUrArGrCrArArGrUrUrArArArArUrArArGrGrCrUrArGrUrCrCrGrUrUrArUrCrArArCrUrUrGrArArArArArGrUrGrGrCrArCrCrGrArGrUrCrGrGrUrGrCrU*mU*mU*mU
B14: GA230: PCSK9 gRNA; protospacer AGTAGAGGCAGGCATCGTCC (SEQ ID NO: 224) (nucleic acid)
guide: AGUAGAGGCAGGCAUCGUCCGUUUUAGAGCUAGAAAUAGCAAGUUAAAAUAAGGCUAGUCCGUUAUCAACUUGAAAAAGUGGCACCGAGUCGGUGCUUUU
modifications: sugars from the 5' end m3 r94 m3, linkages s3 o93 s3 (s phosphorothioate, o phosphodiester), T or U not given here

tested on: PCSK9 gene; experiment: PCSK9 gRNA/SpCas9 editing in primary human hepatocytes (Tables 2, 4); format: cell-based; conditions: 100 ng/RNA/mL; SpCas9 mRNA MS002 1:1 by weight
In short: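 Primary human hepatocytes co-transfected with PCSK9 gRNA plus SpCas9 mRNA (1:1 by weight) at 2500, 500 or 100 ng RNA/mL, or 2500–250 ng/mL for tracr-modified guides. Editing at the target site read by amplicon next-generation sequencing of extracted genomic DNA.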

Molecule	Human Primary Hepatocyte Editing % 100
B1	1.05%
B2	0.08%
B3	0.06%
B4	6.92%
B5	2.14%
B6	4.53%
B7	3.08%
B8	5.9%
B9	0.06%
B10	0.47%
B11	0.61%
B12	1.68%
B13	3.65%

same assay, conditions: 500 ng/RNA/mL; SpCas9 mRNA MS002 1:1 by weight

Molecule	Human Primary Hepatocyte Editing % 500
B1	0.24%
B2	2.17%
B3	2.29%
B4	3.13%
B5	12.97%
B6	15.83%
B7	5.39%
B14	12.83%
B8	10.96%
B9	1.73%
B10	6.85%
B11	1.49%
B12	2.97%
B13	8.74%

same assay, conditions: 2500 ng/RNA/mL; SpCas9 mRNA MS002 1:1 by weight

Molecule	Human Primary Hepatocyte Editing % 2500
B1	7.94%
B2	17.95%
B3	5.45%
B4	22.41%
B5	42.8%
B6	36.78%
B7	19.97%
B14	29.31%
B8	37.1%
B9	3.49%
B10	30.41%
B11	5.39%
B12	2.9%
B13	35.08%

tested on: PCSK9 gene; experiment: PCSK9 gRNA/SpCas9 editing in primary cynomolgus hepatocytes (Tables 2, 22); format: cell-based, cynomolgus monkey; conditions: 100 ng/RNA/mL; SpCas9 mRNA MS002 1:1 by weight

Molecule	Cyno Primary Hepatocyte Editing % 100
B1	0.52%
B2	1.11%
B3	0.21%
B4	2.31%
B5	1.62%
B6	2.17%
B7	2.38%
B8	1.95%
B9	0.02%
B10	0.75%
B11	0.97%
B12	0.19%
B13	4.52%

same assay, conditions: 500 ng/RNA/mL; SpCas9 mRNA MS002 1:1 by weight

Molecule	Cyno Primary Hepatocyte Editing % 500
B1	1.9%
B2	5.78%
B3	1.53%
B4	11.62%
B5	11.18%
B6	13.46%
B7	10.84%
B8	7.89%
B9	0.55%
B10	5.39%
B11	2.94%
B12	0.88%
B13	14.98%

same assay, conditions: 2500 ng/RNA/mL; SpCas9 mRNA MS002 1:1 by weight

Molecule	Cyno Primary Hepatocyte Editing % 2500
B1	10.62%
B2	24.63%
B3	6.44%
B4	37.44%
B5	28.26%
B6	46.01%
B7	37.8%
B14	35.86%
B8	31.36%
B9	4.55%
B10	34.28%
B11	16.11%
B12	7.07%
B13	48.24%
